Changes are numbered by the printed parent chain.
B1: H1_1_LC2 (antibody, V domains shown)
VH: EVQLVESGGGLVQPGGSLRLSCAASGFTFSKAAMYWVRQAPGKGLELVSRIRTKPNNYATYHADSVKGRFTISRDNSKNTLYLQMNSLRAEDTAVYYCTADMATGDYWGQGTLVTVSS
VL: DIQMTQSPSSLSASVGDRVTITCKASQNINKNLDWYQQKPGKAPKPLIYSTNNLQTGVPSRFSGSGSGTDFTLTISSLQPEDFATYYCYQYKSAWTFGQGTKVEIK
B2: H3_5_LC2 (antibody, V domains shown)
VH: B1 VH with K31N, M102F, T104R
VL: B1 VL
B3: HC2_L3_10 (antibody, V domains shown)
VH: B1 VH with K31N
VL: B1 VL with S93L
B4: H2_4_LC2 (antibody, V domains shown)
VH: B1 VH with K31N, P55R
VL: B1 VL
B5: H3_4_LC2 (antibody, V domains shown)
VH: B1 VH with K31N, T99S, M102F, T104K
VL: B1 VL
B6: HC2_L3_6 (antibody, V domains shown)
VH: B1 VH with K31N
VL: B1 VL with S93K
B7: HC2_L3_3 (antibody, V domains shown)
VH: B1 VH with K31N
VL: B1 VL with Y91D, S93K, A94G
B8: H2_1_LC2 (antibody, V domains shown)
VH: B1 VH with K31N, Y58F
VL: B1 VL
B9: HC2_L3_2 (antibody, V domains shown)
VH: B1 VH with K31N
VL: B1 VL with Y91D, S93R, A94G
B10: H3_3_LC2 (antibody, V domains shown)
VH: B1 VH with K31N, T99A, D101A, T104R
VL: B1 VL
B11: HC2_L3_5 (antibody, V domains shown)
VH: B1 VH with K31N
VL: B1 VL with S93N
B12: HC2_L3_7 (antibody, V domains shown)
VH: B1 VH with K31N
VL: B1 VL with S93N, A94G
B13: HC2_L1_1 (antibody, V domains shown)
VH: B1 VH with K31N
VL: B1 VL with K31N, Q55K
B14: H1_3_LC2 (antibody, V domains shown)
VH: B1 VH with K31R
VL: B1 VL
B15: HC2_L3_4 (antibody, V domains shown)
VH: B1 VH with K31N
VL: B1 VL with Y91D, A94G
B16: H2_2_LC2 (antibody, V domains shown)
VH: B1 VH with K31N, K54Q, P55R
VL: B1 VL
B17: H1_6_LC2 (antibody, V domains shown)
VH: B1 VH with T28N
VL: B1 VL
B18: H2_5_LC2 (antibody, V domains shown)
VH: B1 VH with K31N, K54E
VL: B1 VL
B19: HC2_L1_2 (antibody, V domains shown)
VH: B1 VH with K31N
VL: B1 VL with N28I, K31Q, N32I
B20: H3_1_LC2 (antibody, V domains shown)
VH: B1 VH with K31N, D101N
VL: B1 VL
B21: HC2_L3_8 (antibody, V domains shown)
VH: B1 VH with K31N
VL: B1 VL with Y91F, S93K
B22: HC2_L3_11 (antibody, V domains shown)
VH: B1 VH with K31N
VL: B1 VL with S93F
B23: HC2_L3_1 (antibody, V domains shown)
VH: B1 VH with K31N
VL: B1 VL with Y91D, S93N, A94G
B24: HC2_L2_2 (antibody, V domains shown)
VH: B1 VH with K31N
VL: B1 VL with S12K, A13S, S50R, N52K
B25: H2_6_LC2 (antibody, V domains shown)
VH: B1 VH with K31N, N56K
VL: B1 VL
B26: HC2_L2_1 (antibody, V domains shown)
VH: B1 VH with K31N
VL: B1 VL with N53K, Q55K
B27: H1_4_LC2 (antibody, V domains shown)
VH: B1 VH with S30N
VL: B1 VL
B28: H1_2_LC2 (antibody, V domains shown)
VH: B1 VH with T28R
VL: B1 VL
B29: H1_5_LC2 (antibody, V domains shown)
VH: B1 VH with T28K
VL: B1 VL
B30: HC2_L3_9 (antibody, V domains shown)
VH: B1 VH with K31N
VL: B1 VL with S93Y
B31: H3_6_LC2 (antibody, V domains shown)
VH: B1 VH with K31N, D101N, A103R, T104K
VL: B1 VL
B32: H2_3_LC2 (antibody, V domains shown)
VH: B1 VH with K31N, K54E, P55R
VL: B1 VL
B33: H3_2_LC2 (antibody, V domains shown)
VH: B1 VH with K31N, D101N, T104K
VL: B1 VL
B34: HC6_LC_k3_2_v1 (antibody, V domains shown)
VH: B1 VH with K31N, N76D
VL: EIVMTQSPATLSLSPGERATLSCKASQNINKNLDWYQQKPGQAPRPLIYSTNNLKTGIPARFSGSGSGTDFTLTISSLQPEDFAVYYCYQYKSAWTFGQGTKVEIK
B35: HC6_LC_k3_3 (antibody, V domains shown)
VH: B1 VH with K31N, N76D
VL: B34 VL with K31Q
B36: HC6_LC_k3_4 (antibody, V domains shown)
VH: B1 VH with K31N, N76D
VL: B34 VL with K31E
B37: HC6_LC_k3_7 (antibody, V domains shown)
VH: B1 VH with K31N, N76D
VL: B34 VL with N30S, K31N, N32Y
B38: HC5_LC_k3_5 (antibody, V domains shown)
VH: B1 VH with K31N, V48L, S49A, N76D, L81V
VL: B34 VL with N32Q
B39: HC5_LC_k3_6 (antibody, V domains shown)
VH: B1 VH with K31N, V48L, S49A, N76D, L81V
VL: B34 VL with Q27A, N32Q
B40: HC6_LC_k3_6 (antibody, V domains shown)
VH: B1 VH with K31N, N76D
VL: B34 VL with Q27A, N32Q
B41: HC5_LC_k3_2_v1 (antibody, V domains shown)
VH: B1 VH with K31N, V48L, S49A, N76D, L81V
VL: B34 VL
B42: 20H4_HC5_LC_k3_2_v2 (antibody, V domains shown)
VH: B1 VH with K31N, V48L, S49A, N76D, L81V
VL: B34 VL with K55Q
B43: 20H4_HC5_LC_k3_1 (antibody, V domains shown)
VH: B1 VH with K31N, V48L, S49A, N76D, L81V
VL: B34 VL with K31N
B44: HC5_LC_k3_3 (antibody, V domains shown)
VH: B1 VH with K31N, V48L, S49A, N76D, L81V
VL: B34 VL with K31Q
B45: HC6_LC_k3_1 (antibody, V domains shown)
VH: B1 VH with K31N, N76D
VL: B34 VL with K31N
B46: HC5_LC_k3_4 (antibody, V domains shown)
VH: B1 VH with K31N, V48L, S49A, N76D, L81V
VL: B34 VL with K31E
B47: HC6_LC_k3_5 (antibody, V domains shown)
VH: B1 VH with K31N, N76D
VL: B34 VL with N32Q

Biological target: T1, human alpha-synuclein monomer (human, UniProt P37840 1-140)
Test: SPR (Biacore 8K), IgG captured on anti-human Fc, aSyn monomer injected

| Kd | Binder |
| --- | --- |
| 3.46 nM | B1 |
| 3.84 nM | B2 |
| 2.93 nM | B3 |
| 8.35 nM | B4 |
| 4.64 nM | B5 |
| 3.28 nM | B6 |
| 5.28 nM | B7 |
| 6.18 nM | B8 |
| 4.52 nM | B9 |
| 5.3 nM | B10 |
| 3.24 nM | B11 |
| 4.59 nM | B12 |
| 1.2 nM | B13 |
| 4.04 nM | B14 |
| 2.84 nM | B15 |
| 5.93 nM | B16 |
| 3.91 nM | B17 |

| Kd | Binder |
| --- | --- |
| 5.5 nM | B18 |
| 2.45 nM | B19 |
| 4.79 nM | B20 |
| 3.01 nM | B21 |
| 3.4 nM | B22 |
| 4.2 nM | B23 |
| 2.01 nM | B24 |
| 7.75 nM | B25 |
| 1.78 nM | B26 |
| 3.55 nM | B27 |
| 3.53 nM | B28 |
| 4.61 nM | B29 |
| 2.98 nM | B30 |
| 10.3 nM | B31 |
| 4.76 nM | B32 |
| 4.92 nM | B33 |

Biological target: T1, human alpha-synuclein monomer
Test: as above
Remark: another data set of the same source

| Kd | Binder |
| --- | --- |
| 0.22 nM | B34 |
| 0.16 nM | B35 |
| 0.18 nM | B36 |
| 0.22 nM | B37 |
| 0.13 nM | B38 |
| 0.19 nM | B39 |
| 0.14 nM | B40 |
| 0.17 nM | B41 |
| 1.3 nM | B42 |
| 0.13 nM | B43 |
| 0.17 nM | B44 |
| 0.16 nM | B45 |
| 0.15 nM | B46 |
| 0.21 nM | B47 |

From US20230074436A1 (DENALI THERAPEUTICS, published 2023)
